± gives the uncertainty stated by the source.

The nature of the data set: amyloid nucleation score (Sup35N fusion, yeast selection) (log enrichment); library NNK2; higher = more nucleation; inactive = no reads after selection. In short, it runs like this: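 Growth for 7 days at 30°C on medium lacking adenine and uracil followed a 24-hour induction with 100 μM copper sulfate of psi-negative yeast expressing peptides of 20 random codons fused to Sup35N. Input and output plasmid inserts were sequenced with Illumina, and sequences with under 100 input reads were excluded. Nucleation score is the DiMSum log enrichment of output over input reads, centred on the mode score of non-aggregating sequences.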
FYCSNSYYNVRIDRQNYCQM: the amyloid nucleation score was found to be 5.501 ± 0.052.

FYENN had an amyloid nucleation score of -0.729 ± 0.78.

As for FYFGYLTFISENHVGIQEQG, the amyloid nucleation score entry was “inactive”. To FYFIIWNSLRPILRLSVAPV belongs -0.392 ± 0.61. For FYFKRQNNNDQVIVTHTT the value was -0.103 ± 0.61; for FYFVSSRSIDGVFFRKILNS, “inactive”.

Regarding FYHISYGERKRGGLC, the amyloid nucleation score entry was “inactive”. For FYKGWMVLALNDNSVVSINV the value was 3.42 ± 0.085; for FYMMFMNLCFIYYCVLMEGY, “inactive”. For FYRGLVDHRMNFITFNCGRQ the value was 5.6 ± 0.095; for FYRLLWSRNCTEVR, -1.43 ± 0.75; for FYRSGEHRRSCRVRVVYGEL, 0.397 ± 0.64.

On to FYRTSRASAGLS, for which the amyloid nucleation score was -0.237 ± 0.79. For FYSFLINVPQCPER the value was 0.636 ± 0.81. To FYSVHSCLYVLIHRVQHACC belongs -0.235 ± 1.1; to FYWRFTFRLVCRFCYTRHLK, -0.522 ± 0.35. To GAFIMWYTGWVPHVDSGCCL belongs -1.04 ± 1.1; to GAIIDITRFGFLLYF, -0.847 ± 0.34. On to GALMMMVEGSESVNKVHFVY, for which the amyloid nucleation score was -1.05 ± 0.44. GAMNCRVSSKTRWCDTHMVP displayed an amyloid nucleation score of 1.53 ± 0.52. For GAVHGMT the value was 0.538 ± 0.55; for GAYNNFIMCKSFVFSFQSGD, 6.33 ± 0.063. To GCFSCHIWFTVRFYWTLYVP belongs “inactive”; to GCISSVQD, “inactive”; to GCLRGIGIGGCVGCLRRILF, “inactive”. To GCSAQACYK belongs 1.03 ± 0.23; to GCTCYWFS, 1.63 ± 0.15; to GCWSPKLSIGRRSRSALYRG, 1.2 ± 0.66. Regarding GDAWGTSNIDQSWKLYLSGT, the amyloid nucleation score is -0.12 ± 0.3. For GDFLWNLWVYHNY the value was 1.05 ± 0.17; for GDGFLSFSERSKKYSQSS, -0.855 ± 0.55; for GDSPNNSYWIADSW, 2.75 ± 0.15. For GDTVRRLRLEHKSVDLMIQY the value was 3.73 ± 0.087.

As for GDVYCNGLGISFVYFRGSRS, the amyloid nucleation score result was “inactive”.

Regarding GDYWGAGWRRA, the amyloid nucleation score was determined as 0.184 ± 0.49. To GECHEWV belongs -0.837 ± 1.1; to GEGVSIMYRWHL, 1.21 ± 0.1; to GEQYATGLP, 5.514 ± 0.039. To GERRTSLVVKYGRVAGYTYN belongs -0.273 ± 0.62; to GFEGMSMADRKKGEVRAIWG, 0.755 ± 0.31. For GFFVVISGRMKVYVQGKSWL the value was -0.325 ± 0.56. In turn, GFGLPTGEVVTNNMALGKTE yielded an amyloid nucleation score of -0.844 ± 0.49. For GFICPFVQLCVFRSRHRFEV the value was 0.676 ± 0.8; for GFKSFEHL, 1.91 ± 0.14; for GFNLKVVVITTFDAFYYHAT, “inactive”. To GFQFLIGLSHLNGYLITPRY belongs 3.42 ± 0.059.

As to GFQWLDAYLLGSFWMRMSTC, the amyloid nucleation score is 0.516 ± 0.81.

The substance GFVERNMYAVDNDFYVQNQT returned an amyloid nucleation score of -1.2 ± 0.56. GFVQDAEYRISRSCLRCILM came in with an amyloid nucleation score of 4.03 ± 0.089. For GFVVMMFNLANRYSMQGDVG the value was 8.234 ± 0.052; for GGERYHPYYDAA, 0.268 ± 0.54. For GGFRWSIQEHWYCTNAYSTD the value was 0.734 ± 0.81; for GGGHMFFAGQ, -1.28 ± 1.1; for GGKTYNSTVVDVCDHAFCDY, -0.924 ± 1.1. For GGTVNYFNTLQRSMGNVESV the value was 3.66 ± 0.046; for GGWLAWVRKSYVIVFVWGGG, 0.257 ± 0.46.

In the case of GGWNLDYVMRVYTRRLCNAS, the amyloid nucleation score worked out at 1.17 ± 0.41. To GGWYDPGCSGGDIITDEVDW belongs -0.159 ± 0.55; to GHGFCDNVTSP, -1.2 ± 1.1. Turning to GHLLASKLLQSSYETCS, the amyloid nucleation score stood at 0.286 ± 0.62. To GHSIVLCCRSESPLKKSRYM belongs -0.432 ± 1; to GHSLYPWSALTPLL, “inactive”; to GHYKISKAFTVTST, 2.58 ± 0.095. For GHYLYGFSKNPASENLNAFQ the value was -1.68 ± 0.75; for GIESSPFCFSLPGSATKRKQ, 0.485 ± 0.36; for GIFWTVNIGEICGAIEWSEG, 0.276 ± 0.29. For GIISRMGAVSLNLMLQKRAS the value was 0.8 ± 0.46; for GIKHVCAWDIN, “inactive”. In turn, GILYFLFVLSSVGDVCRLLV showed an amyloid nucleation score of -0.709 ± 0.63. Take GIMSFG: the amyloid nucleation score came out at 1.66 ± 0.43.

With GINWSAVYR, the amyloid nucleation score was -0.083 ± 0.24. For GIRWQVATDSPRLSGYPLCT, the amyloid nucleation score came out at 3.46 ± 0.083. To GIVVSIMHGIDSYGAIY belongs -0.395 ± 0.39; to GKCWRVRASIFVGILFKIAG, 0.486 ± 0.8; to GKESTTKH, -0.494 ± 0.56. To GKLLRHFGLMYCLFLIAAYG belongs 0.108 ± 0.42. To GKVGWDCCISQIYCLDLFIP belongs 8.292 ± 0.047; to GKYCYPL, -0.81 ± 0.32; to GLAMFKYIMAIVRNF, -0.855 ± 0.37. In turn, GLDMDGSVLPFVFYRSMYGE registered an amyloid nucleation score of 0.136 ± 0.55. In turn, GLFCSLLCLVGAVSEKT had an amyloid nucleation score of 5.26 ± 0.086. Consider GLFSSGRFVSADSM, for which the amyloid nucleation score is -0.368 ± 0.54. GLGMGDFCILVKLKANVSRC came in with an amyloid nucleation score of -0.266 ± 1.

As for GLGSPLHIWNIFVRRWYHRY, the amyloid nucleation score entry was “inactive”. To GLLLGMVFFCGSSTTNMGGI belongs 5.902 ± 0.051. To GLLPFGISAMNLRFHQGVAR belongs -0.359 ± 0.2. In turn, GLMMPYL returned an amyloid nucleation score of 0.062 ± 0.39. For GLNLSREYYNLFEVEVHADT the value was -0.178 ± 0.55. Substance GLNYIARMSQN yielded an amyloid nucleation score of 0.392 ± 0.3. Substance GLPPVC showed an amyloid nucleation score of 0.851 ± 0.22. For GLPVCYNRVT the value was -1.22 ± 1; for GLSAIPFTDG, -0.722 ± 0.45; for GLTLFVRSLALRNYVCDWSP, 0.149 ± 0.36. To GLVLWRRHFKAAASVSMQSW belongs 0.216 ± 0.4.

For the substance GLVSLLYGY, the amyloid nucleation score came to 0.185 ± 0.34. To GLWVSHEVCIGCVF belongs “inactive”. For GLYVLYDNINWDERTRALSG the value was -0.728 ± 0.48; for GLYYASYNN, -1.63 ± 0.5.

With GMESSMVRNVEHVKERVYIE, the amyloid nucleation score was 3.6 ± 0.1.

GMMLPVFMIFIRRACINYSL: the amyloid nucleation score entry was “inactive”. GMRADSYCVRVGWFLCQNIN: the amyloid nucleation score is 7.002 ± 0.07. For GMRSCYWCEPSYCWASA the value was 2.9 ± 0.066; for GMTEWVGLAQERIYAWAKSE, 0.517 ± 0.36; for GNGLVMLKTVHLWVLRDVLG, 0.839 ± 0.24. Take GNLDDTSLYCLYSLVSSRCS: the amyloid nucleation score stood at 0.373 ± 0.29. For GNMVFAPCDL the value was 1.07 ± 0.2. To GNRFNRRLWSQATILEF belongs -0.166 ± 0.76; to GNSISFVYQSLICFNCDLSV, 7.453 ± 0.024. On to GNSLNSYLSE, for which the amyloid nucleation score is -0.346 ± 0.42. To GNVWILIYNV belongs 6.164 ± 0.057; to GNYHFCRERGRVACW, -0.378 ± 1. To GPDLESFLRVIMQNFHDTKK belongs -1.54 ± 0.41. For GPFLMSVTLVYLFVFMFERL the value was -0.769 ± 0.36; for GPISVKRYL, 1.64 ± 0.35; for GPLRNEASGIWKKPGQCMTD, -0.813 ± 0.76.

GPNDWRNCFRD showed an amyloid nucleation score of 0.401 ± 0.56.

Consider GQFGVCITSPARQLSYD, for which the amyloid nucleation score result is “inactive”.

With GQPRLRSY, the amyloid nucleation score is 3.89 ± 0.1. For GQWRKGAYMVC the value was 0.477 ± 0.34; for GQYKTGVRGSRLNLPLMLTE, 0.328 ± 0.19; for GRCWI, 1.39 ± 0.24. For GRDNYSWCSRVEPCKRNGAL the value was 0.103 ± 0.43; for GRELRTVRNAGPFDQWVGVS, 5.79 ± 0.086.

On to GRFKITVTRYANVYSMLRVI, for which the amyloid nucleation score turned out to be 1.02 ± 0.49. In the case of GRLLFAWLYLCDYGGYIMRV, the amyloid nucleation score was -0.081 ± 1.1. Regarding GRRMIRAERTIRLIIHVRSL, the amyloid nucleation score amounted to 0.767 ± 0.6.

As to GRSFFMF, the amyloid nucleation score was 2.5 ± 0.091. For GRTCVRRGQAE the value was 0.909 ± 0.47; for GRTVQIMDRVFS, -1.12 ± 0.76; for GRVISCVGLTAFNKAVGSCR, 0.626 ± 0.42.

For the substance GRVNLDRCSSWVGWFVGCLL, the amyloid nucleation score is -1.09 ± 0.78. For GRWVNCKTVVLFSSDRRQAR the value was 3.36 ± 0.14. To GRYVNCGRSLRICSINLTKI belongs -1.31 ± 0.55; to GSAFGGRRLFEGLRGGIREW, 0.665 ± 0.4; to GSDAVR, 2.7 ± 0.082.

In the case of GSFSGKYPRHR, the amyloid nucleation score is -0.266 ± 1. For GSGGWLAGHKTVK the value was 0.174 ± 1; for GSICAHGECF, 0.57 ± 0.81; for GSIYTCCGAGRKQNVGPKYL, 2.25 ± 0.1. For GSLARSTD the value was 1.25 ± 0.15; for GSLKCDAHLG, 0.339 ± 0.18.

For the origin of these results see the supplement of paper PMC12042874.
